Data on one substance can be found in article doi:10.1101/2021.08.30.21262666.

What all share (assay): SPR
Assay [1] addresses AZD1061 (cilgavimab) (human).
The target of a further assay is AZD1061-TM (human).
Assay [2] has as its target AZD8895 (tixagevimab) (human).
The target in another assay is AZD8895-TM (human).

Consider “human neonatal Fc receptor (from UniProt P55899;P61769)”, for which the Kd was 283 nM in assay [1], 2360 nM with AZD1061-TM (human), 272 nM in assay [2] and 2400 nM with AZD8895-TM (human).
